The target of the test is BIQ, fluorescent reporter containing an IQ domain sequence derived from neuromodulin (UniProt P17677). Description: other fluorescence titration.
Sequence of BIQ, fluorescent reporter containing an IQ domain sequence derived from neuromodulin (P17677 31-60): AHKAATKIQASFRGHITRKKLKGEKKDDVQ

“calmodulin (native vertebrate CaM) (from UniProt P0DP23 1-149) (natural protein)”: the stoichiometry N turned out to be 1.

These data come from publication PMC2791412.
